Test results as given in IntAct's records for PubMed 23511974.

B1: Centrosomal protein of 135 kDa (Homo sapiens), Q66GS9 (parent)
chain: MTTAVERKYINIRKRLDQLGYRQTLTVECLPLVEKLFSDLVHTTESLRQSKLSAVKAEKESANFDFVLEPYKLENARLSRENNELYLELMKLREHSDQHVKELKTSLKKCARETADLKFLNNQYAHKLKLLEKESKAKNERIQQLQEKNLHAVVQTPGGKKRSIAFRRQRMQIDEPVPPSEVSSYPVPQPDDPYIADLLQVADNRIQELQQEVHQLQEKLAMMESGVRDYSKQIELREREIERLSVALDGGRSPDVLSLESRNKTNEKLIAHLNIQVDFLQQANKDLEKRIRELMETKETVTSEVVNLSNKNEKLCQELTEIDQLAQQLERHKEEVLETADKELGEAKKEIKRKLSEMQDLEETMAKLQLELNLCQKEKERLSDELLVKSDLETVVHQLEQEKQRLSKKVESFAVTERQLTLEVERMRLEHGIKRRDRSPSRLDTFLKGIEEERDYYKKELERLQHIIQRRSCSTSYSAREKSSIFRTPEKGDYNSEIHQITRERDELQRMLERFEKYMEDIQSNVKLLTAERDKLSVLYNEAQEELSALRKESTQTTAPHNIVSLMEKEKELALSDLRRIMAEKEALREKLEHIEEVSLFGKSELEKTIEHLTCVNHQLESEKYELKSKVLIMKETIESLENKLKVQAQKFSHVAGDSSHQKTEVNSLRIVNEQLQRSVDDYQHRLSIKRGELESAQAQIKILEEKIDELNLKMTSQDEEAHVMKKTIGVIDKEKDFLQETVDEKTEKIANLQENLANKEKAVAQMKIMISECESSVNQLKETLVNRDREINSLRRQLDAAHKELDEVGRSREIAFKENRRLQDDLATMARENQEISLELEAAVQEKEEMKSRVHKYITEVSRWESLMAAKEKENQDLLDRFQMLHNRAEDWEVKAHQAEGESSSVRLELLSIDTERRHLRERVELLEKEIQEHINAHHAYESQISSMAKAMSRLEEELRHQEDEKATVLNDLSSLRELCIKLDSGKDIMTQQLNSKNLEFERVVVELENVKSESDLLKKQLSNERHTVKNLESLLATNRDKEFHSHLTSHEKDTEIQLLKEKLTLSESKLTSQSRENTMLRAKVAQLQTDYDALKRQISTERYERERAIQEMRRHGLATPPLSSTLRSPSHSPEHRNV
partner: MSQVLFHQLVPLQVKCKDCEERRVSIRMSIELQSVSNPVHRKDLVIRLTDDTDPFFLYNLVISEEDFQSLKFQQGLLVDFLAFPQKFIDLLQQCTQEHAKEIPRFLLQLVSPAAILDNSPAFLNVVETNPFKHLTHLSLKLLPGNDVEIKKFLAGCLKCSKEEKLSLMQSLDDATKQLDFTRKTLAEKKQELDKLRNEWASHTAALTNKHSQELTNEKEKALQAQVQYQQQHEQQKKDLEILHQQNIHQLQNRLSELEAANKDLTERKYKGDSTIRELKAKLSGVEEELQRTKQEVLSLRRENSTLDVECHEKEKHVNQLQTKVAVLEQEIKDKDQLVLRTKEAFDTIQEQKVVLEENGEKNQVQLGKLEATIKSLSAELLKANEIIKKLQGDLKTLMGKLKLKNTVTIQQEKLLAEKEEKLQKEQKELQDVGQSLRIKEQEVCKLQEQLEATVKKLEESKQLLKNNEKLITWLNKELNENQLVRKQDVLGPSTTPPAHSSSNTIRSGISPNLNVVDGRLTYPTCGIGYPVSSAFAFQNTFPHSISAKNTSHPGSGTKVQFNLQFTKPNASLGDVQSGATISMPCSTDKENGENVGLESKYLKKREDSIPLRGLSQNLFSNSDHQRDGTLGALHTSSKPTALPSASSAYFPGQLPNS

Variants of: B1
Settings: with sas6_human SASS6, Q6UVJ0

Row | effect of a mutation on the interaction | Variant
1 | disrupting interaction | L588P
